Here are results for 4 molecules from US20200247894A1 (Regeneron, published 2020).

The target in assay [1] is T1, Human IL2Rγ extracellular domain expressed with a C-terminal mouse IgG2a Fc tag (human).
T1 construct: whole entry is the Fc-fused construct; also called hIL-2Rg-mFc
T1 chain: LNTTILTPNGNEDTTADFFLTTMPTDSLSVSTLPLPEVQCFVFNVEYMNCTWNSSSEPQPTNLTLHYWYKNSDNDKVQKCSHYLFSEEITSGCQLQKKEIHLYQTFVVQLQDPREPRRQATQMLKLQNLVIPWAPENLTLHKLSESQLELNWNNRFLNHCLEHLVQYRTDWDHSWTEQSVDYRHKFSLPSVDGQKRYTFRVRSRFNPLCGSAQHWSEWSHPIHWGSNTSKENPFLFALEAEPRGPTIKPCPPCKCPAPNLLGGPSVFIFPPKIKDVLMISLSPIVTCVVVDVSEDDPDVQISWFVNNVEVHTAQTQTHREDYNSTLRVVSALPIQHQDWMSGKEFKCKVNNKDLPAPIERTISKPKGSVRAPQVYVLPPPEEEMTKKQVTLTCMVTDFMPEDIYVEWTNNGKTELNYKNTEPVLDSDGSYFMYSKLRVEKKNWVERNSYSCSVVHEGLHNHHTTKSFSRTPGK
Kind of assay: SPR Biacore 4000, anti-hFc-captured mAb, 37 C; computed with kd fixed at 1.00E-05. The procedure: Equilibrium dissociation constants (KD values) for IL-2Rγ binding to purified anti-IL2Rγ monoclonal antibodies were determined using a Biacore 4000 instrument equipped with a real-time surface plasmon resonance biosensor. All binding studies were performed in 10 mM HEPES, 150 mM NaCl, 3 mM EDTA, and 0.05% v/v Surfactant Tween-20, pH 7.4 (HBS-ET) running buffer at 25° C. and 37° C. The Biacore sensor surface was first derivatized by amine coupling with a monoclonal mouse anti-human Fc antibody (GE, # BR-1008-39) to capture anti-IL2Rγ monoclonal antibodies.
The dissociation of monoclonal antibody bound IL2Rγ reagents were monitored for 8-10 minutes in HBS-ET running buffer. Kinetic association (kₐ) and dissociation (kd) rate constants were determined by fitting the real-time sensorgrams to a 1:1 binding model using Scrubber 2.0c curve fitting software. Binding dissociation equilibrium constants (KD) and dissociative half-lives (t_{1/2}) were calculated from the kinetic rate constants as: […]
On the technique in general: SPR reads the build-up and loss of mass on a sensor chip optically.

Assay [2] deals with T1, Human IL2Rγ extracellular domain …. Kind of assay: SPR Biacore 4000, anti-hFc-captured mAb, 37 C. Summed up:
(§1)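 KD and dissociative half-life come from rate constants obtained by 1:1 binding-model fits of real-time sensorgrams. Antibodies sit on an anti-human Fc capture surface, with HBS-ET (pH 7.4) as running buffer and an 8-10 minute dissociation phase.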

In assay [3] the target is T2, Macaca fascicularis IL2Rγ extracellular domain expressed with a C-terminal myc-myc-hexahistidine tag (Macaca fascicularis).
T2 construct: whole entry is the tagged construct; also called mfIL-2Rg-MMH
T2 chain: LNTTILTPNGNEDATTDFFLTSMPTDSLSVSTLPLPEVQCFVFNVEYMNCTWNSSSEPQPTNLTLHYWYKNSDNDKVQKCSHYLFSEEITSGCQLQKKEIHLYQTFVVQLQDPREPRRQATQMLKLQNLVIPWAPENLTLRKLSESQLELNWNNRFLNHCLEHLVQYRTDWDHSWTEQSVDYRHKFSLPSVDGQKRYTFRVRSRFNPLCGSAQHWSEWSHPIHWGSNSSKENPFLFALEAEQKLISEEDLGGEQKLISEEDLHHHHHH
Kind of assay: SPR Biacore 4000, anti-hFc-captured mAb, 37 C. The essentials: as §1

The target in assay [4] is T3, Mouse IL2Rγ extracellular domain expressed with a C-terminal myc-myc-hexahistidine tag (mouse).
T3 construct: whole entry is the tagged construct; also called mIL-2Rg-MMH
T3 chain: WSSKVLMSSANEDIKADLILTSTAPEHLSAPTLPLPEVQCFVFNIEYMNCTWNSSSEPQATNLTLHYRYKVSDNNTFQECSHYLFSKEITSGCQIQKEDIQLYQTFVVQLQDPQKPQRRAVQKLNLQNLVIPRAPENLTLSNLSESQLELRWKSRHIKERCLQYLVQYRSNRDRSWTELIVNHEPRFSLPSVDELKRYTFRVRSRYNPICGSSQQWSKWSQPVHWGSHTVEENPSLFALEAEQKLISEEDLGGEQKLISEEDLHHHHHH
Kind of assay: SPR Biacore 4000, anti-hFc-captured mAb, 37 C. Summed up:
as §1

Assay [5] concerns the target T4, Rat IL2Rγ extracellular domain expressed with a C-terminal myc-myc-hexahistidine tag (rat).
T4 construct: whole entry is the tagged construct; also called rIL-2Rg-MMH; rat IL-2Rg-MMH
T4 chain: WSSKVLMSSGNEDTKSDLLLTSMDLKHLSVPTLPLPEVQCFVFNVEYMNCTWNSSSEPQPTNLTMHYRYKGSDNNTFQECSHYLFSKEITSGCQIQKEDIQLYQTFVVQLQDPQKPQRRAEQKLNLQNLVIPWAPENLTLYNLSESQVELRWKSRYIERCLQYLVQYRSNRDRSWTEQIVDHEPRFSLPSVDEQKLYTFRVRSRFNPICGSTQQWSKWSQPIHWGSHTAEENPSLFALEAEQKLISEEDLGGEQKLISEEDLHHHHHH
Briefly: SPR Biacore 4000, anti-hFc-captured mAb, 37 C. The essentials:
as §1

In assay [6] the target is T1, Human IL2Rγ extracellular domain …. Kind of assay: SPR Biacore 4000, anti-hFc-captured mAb, 25 C. The essentials: as §1
The target of assay [7] is T3, Mouse IL2Rγ extracellular domain …. Kind of assay: SPR Biacore 4000, anti-hFc-captured mAb, 25 C. Summed up:
as §1

The target of assay [8] is T4, Rat IL2Rγ extracellular domain …. Kind of assay: SPR Biacore 4000, anti-hFc-captured mAb, 25 C. Summed up:
as §1

The target in assay [9] is T1, Human IL2Rγ extracellular domain …. Briefly: SPR Biacore 4000, anti-hFc-captured mAb, 37 C; no dissociation observed, kd manually fixed at 1.00E-05.

B1: H4H12863P (antibody, human IgG4 S228P, kappa, V domains shown)
VH: QVQLVESGGGVVQPGRSLRLSCTASGFTFRSYDMYWVRQAPGKGLEWVSVITYDGNNKYYADSVKGRFTISRDNSKNTLFLQMSSLRPEDTAVYYCAKRGLIWVGESFDYWGQGTLVTVSS
VL: DIQMTQSPSTLSASVGDRVTITCRASQSINSWLAWYQQKPGKAPNLLIYKASSLESGVPSRFSGSGSGTEFTLTISSLQPDDFATYYCQQYKSYSWTFGQGTKVEIKR
notes: fully human anti-IL2Rgamma mAb, human IgG4 Fc
One may read the Kd as the free concentration of one partner at which half of the binding sites on the other are occupied at equilibrium, for simple one-to-one binding. A higher Kd goes with a looser complex. In general, kon refers to the second-order rate constant of association. What is called koff is the rate constant with which the complex falls apart. A lower koff goes with a long-lived complex. With B1, the equilibrium dissociation constant (Kd) in assay [1] is no more than 0.0186 nM; in assay [3], 5.51 nM; in assay [6], 0.0853 nM. Further, the t1/2 in assay [1] is no less than 19.2 h; in assay [3], 0.133 h; in assay [6] it was 5.65 h. Besides, the “50 nM Ag Bound” value in assay [2] amounted to 93 RU; in assay [6], 115 RU. Besides, the on-rate constant (kon) in assay [2] stood at 537000 M⁻¹ s⁻¹; in assay [3] it was 266000 M⁻¹ s⁻¹; in assay [6], 399000 M⁻¹ s⁻¹. Also, the “100 nM Ag Bound” value was 63 RU in assay [3]; 0 RU in assay [4]; 0 RU in [5]; 2 RU in assay [7]; 1 RU in [8]. Besides, the koff is 0.00147 s⁻¹ in [3], 3.41e-05 s⁻¹ in assay [6] and no more than 1e-05 s⁻¹ in [9]. For the same molecule, the binding result in assay [7] and in assay [8] was “no binding (tested: 100 nM)” in each case.

B2: H4H12922P2 (antibody, human IgG4 S228P, kappa, V domains shown)
VH: QVQLVESGGGVVKPGGSLRLSCAASGFTFSNSGIHWVRQAPGKGLEWVALISYAGSNKYYADSVKGRFTISRDNSKNTLSLQMNSLRAEDTAVYYCAKEVWTGTYDSFDMWGRGTMVTVSS
VL: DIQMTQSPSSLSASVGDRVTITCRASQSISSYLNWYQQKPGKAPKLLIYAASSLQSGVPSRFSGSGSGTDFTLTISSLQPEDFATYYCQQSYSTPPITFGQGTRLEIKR
notes: fully human anti-IL2Rgamma mAb, human IgG4 Fc; also called REGN7256
With B2, the Kd in [1] is no more than 0.0448 nM; in [3] it was 4.18 nM; in assay [6] it was 0.0564 nM. Also, the t1/2 is no less than 19.2 h in assay [1], 0.15 h in assay [3] and 11 h in assay [6]. Also, the “50 nM Ag Bound” value is 47 RU in [2] and 82 RU in assay [6]. The kon amounted to 223000 M⁻¹ s⁻¹ in [2], 308000 M⁻¹ s⁻¹ in [3] and 310000 M⁻¹ s⁻¹ in [6]. Besides, the “100 nM Ag Bound” value in assay [3] came out at 44 RU; in assay [4], 2 RU; in assay [5] it was 5 RU; in [7], 2 RU; in assay [8], 3 RU. In addition, the dissociation rate constant (koff) was 0.00129 s⁻¹ in [3], 1.75e-05 s⁻¹ in assay [6] and no more than 1e-05 s⁻¹ in assay [9]. Also, the binding result in [7] and in assay [8] was “no binding (tested: 100 nM)” each time.

B3: H4H12874P (antibody, human IgG4 S228P, kappa, V domains shown)
VH: QVQLVESGGGVVQPGRSLRLSCAASGFNFRNFGMHWVRQAPGKGLEWVAGILYDGSSKYYADSVKDRFTISRDNSKNTLFLQMNSLRAEDTAMYYCAKEEDTAMVPFDSWGPGTLVTVSS
VL: DIQLTQSPSFLSASVGDRVTITCWASQGISSYLAWYQQKPGKAPTLLIYAASTLQSGVPSRFSGSGSGTEFTLTISSLQPEDFASYYCQQLKSYPLTFGGGTKVEIKR
notes: as for B1
Turning to B3, the Kd is no more than 0.303 nM in assay [1], 12.4 nM in assay [3] and 4.18 nM in [6]. Also, the t1/2 in assay [1] is no less than 19.2 h; in assay [3], 0.167 h; in [6] it was 2.3 h. The “50 nM Ag Bound” value in assay [2] stood at 14 RU; in assay [6] it was 15 RU. In addition, the kon in [2] came out at 33000 M⁻¹ s⁻¹; in assay [3] it was 93300 M⁻¹ s⁻¹; in assay [6], 20000 M⁻¹ s⁻¹. In addition, the “100 nM Ag Bound” value in [3] came to 43 RU; in assay [4] it was 0 RU; in assay [5], 3 RU; in assay [7] it was 1 RU; in assay [8], 1 RU. The off-rate (koff) was 0.00116 s⁻¹ in assay [3], 8.35e-05 s⁻¹ in assay [6] and no more than 1e-05 s⁻¹ in assay [9]. The binding result in assay [7] and in assay [8] was “no binding (tested: 100 nM)” in each case.

B4: H4H12889P (antibody, human IgG4 S228P, kappa, V domains shown)
VH: EVQLVESGGGLVQPGGSLRLSCAASGFIFSSYEMHWVRQAPGKGLEWISYISSSGTTIYYADSVKGRFTISRDNAKNSLYLHMNSLRAEDTAVYYCTRARITGTFDVFDIWGQGTMVTVSS
VL: DIQMTQSPSSLSASVGDRVTITCRASQSISSYLNWYQQKPGKAPKLLIFAASNLQSGVPSRFSGSRSGTDFTLTISSLQPEDFATYYCQQNYNIPYTFGQGTKLEIKR
notes: fully human anti-IL2Rgamma mAb, human IgG4 Fc; also called REGN7257
For B4, the dissociation constant (Kd) was no more than 0.042 nM in assay [1], 4.63 nM in [3] and 0.0447 nM in assay [6]. Further, the t1/2 was no less than 19.2 h in assay [1], 0.117 h in assay [3] and 12.4 h in [6]. Besides, the “50 nM Ag Bound” value in assay [2] came out at 39 RU; in assay [6], 69 RU. For the same molecule, the kon in [2] is 238000 M⁻¹ s⁻¹; in assay [3] it was 369000 M⁻¹ s⁻¹; in assay [6], 347000 M⁻¹ s⁻¹. The “100 nM Ag Bound” value in assay [3] was determined as 29 RU; in [4] it was 0 RU; in assay [5], 2 RU; in [7], 1 RU; in [8], 1 RU. For the same molecule, the values for the koff in [3], in assay [6] and in assay [9] were 0.00171 s⁻¹, 1.55e-05 s⁻¹ and no more than 1e-05 s⁻¹, respectively. Besides, the binding result in assay [7] and in assay [8] was “no binding (tested: 100 nM)” throughout.
